Patent US9345765B2, “Diagnostic and therapeutic uses of moesin fragments” (SHANGHAI KEXIN BIOTECH CO., LTD., priority 2010, dated 2016)

Columns and labels:
Assay type in all cases: cell-based, human
platelets [1] = experiment: Inhibition of platelet activation induced by activators: CD62P and CD63 expression by flow cytometry; parameters: key to CD62P FD (Mnx) / CD63 FD (Mnx): mean fluorescence density by flow cytometry; conditions: for effect on platelet activation induced by ADP (in words): activator ADP; for effect on platelet activation induced by the antibody against the N-terminal FERM domain of moesin (in words): activator anti-moesin N-terminal domain antibody; for CD62P FD (Mnx) / CD63 FD (Mnx): inhibitor first, n = 12
Procedure: This experiment is performed to assess the blocking effect of various inhibitors (i.e. test agents) on the platelet activation induced by various different activators.
The plasma samples were collected from 12 healthy individuals, and cultured in the presence of an inhibitor as described in Table 2 below for several minutes (e.g. 5 mins), and thereafter an activator of platelet activation was added therein and the plasma samples were further cultured for another several minutes (e.g. 5 mins). The culture conditions were the same as Example 2. After that, CD62P monoclonal antibody and CD63 monoclonal antibody labeled with FITC were used to detect the expressed CD62P and CD63 in the plasma samples, and the fluorescence density of the plasma samples was detected using flow cytometry of Beckman Coulter EPICS-XL. The expression levels of the CD62P and CD63 were represented by the average value of fluorescence density detected. A control group using 0.01M PBS instead of any inhibitor was also tested.
The peptide RGDS is known as an inhibitor of platelet activation that inhibits platelet's activation by competing with platelet activator combined-1 (PAC-1) to bind to glycoprotein (GP) IIb/IIIa complex on the surface of platelets. The RGDS was prepared according to a conventional peptide synthesis in solid phase and used herein with a concentration of 10 mg/ml in 0.01 M PBS. The moesin fragments and anti-moesin antibodies used in this experiment were prepared according to Example 1. As used in this experiment, the anti-moesin N-terminal domain antibody has a concentration of 20 μg/ml in 0.01M PBS, the N-terminal FERM domain has a concentration of 2 mM in 0.01M PBS, and the anti-moesin C-terminal domain has a concentration of 20 μg/ml in 0.01M PBS. The ADP used herein has a concentration of 5 μM in 0.01M PBS. The results are listed in Table 2 below and also illustrated in FIG. 7.

platelets [2] = experiment: Platelet aggregation assay (Born method, transparency)
Procedure: Plasma samples were collected from 6 healthy individuals and mixed with 3.8% sodium citrate in the ratio of 9:1 (v/v) to prevent solidification of the plasma. The mixed plasma samples were then centrifuged to obtain a portion of platelet-rich plasma (“PRP”) and another portion of platelet-poor plasma (“PPP”). The PRP was diluted with PPP to obtain a plasma sample having a platelet count of 5×10^8 per milliliter as a testing plasma sample for later use.
The testing plasma sample was incubated in the presence of an inhibitor of platelet activation as described in Table 3 below for several minutes, and thereafter an activator of platelet activation as described in Table 3 below was added therein and the plasma sample was further incubated for another several minutes to obtain a final mixture. The final mixture was detected for blood aggregation by measuring the transparency of the sample using TYXN-91 Intelligent Blood Agglutometer according to the Born methods. The transparency of PRP in the presence of either ADP or antibody against the N-terminal domain of moesin was also detected as positive controls. A negative control containing no inhibitor was also tested.
The testing results which was shown as platelet aggregation rate (“PAR”) and platelet aggregation inhibition rate (“PAIR”) are listed in Table 3 below.
PAR is calculated by, 1) subtracting PPP's transparency with the testing group's transparency, and 2) dividing the result of step 1) by PPP's transparency and then multiplying 100%. PAIR is calculated by, 1) subtracting the PRP group's PAR with the testing group's PAR, and 2) dividing the result of step 1) by the PRP group's PAR and then multiplying 100%.
The RGDS was prepared according to a conventional peptide synthesis in solid phase and used herein with a concentration of 10 ug/ml in 0.01M PBS. The moesin fragments and anti-moesin antibodies used in this experiment were prepared according to Example 1. The concentration regarding an inhibitor as described in Table 3 below is a final concentration of the inhibitor in the testing plasma sample, and the concentration regarding the activator of ADP and the antibody against N-terminal FERM domain of moesin also refers to a final concentration in the testing plasma sample.

platelets [3] = experiment: Stimulation of platelet activation: CD62P and CD63 expression in plasma by flow cytometry; conditions: for CD62P FD (Mnx) / CD63 FD (Mnx): agent alone in plasma of 12 healthy individuals, final conc. ADP 5 μM, antibody 20 μg/ml, FERM domain 2 mM
Procedure: The expressions of CD62P and CD63 are associated with platelet activation. Therefore, these two proteins can be used as indicators to characterize the profile of platelet activation. This experiment was performed in vitro to assess stimulation of platelet activation in the presence of various agents by detecting the expression levels of CD62P and CD63 using CD62P monoclonal antibody and CD63 monoclonal antibody.
Plasma samples were collected from 12 healthy individuals, and cultured at room temperature in the presence of various agents as described in Table 1 below for several minutes (e.g. 5 mins). The culture conditions were selected so that the platelets can be fully activated within about 10 mins. After that, CD62P monoclonal antibody and CD63 monoclonal antibody labeled with fluorescein isothiocyanate (FITC) were used to detect the expressed CD62P and CD63 in the plasma samples, and the fluorescence density (“FD”) of the plasma samples was detected using flow cytometry of Beckman Coulter EPICS-XL. The expression levels of the CD62P and CD63 were represented by the average value of fluorescence density detected.
The agents being tested in this assay are listed in Table 1 below, including ADP which is known as an agent stimulating platelet activation (Group 1), the anti-moesin N-terminal domain antibody (Group 2) and the N-terminal FERM domain of moesin (Group 3) which were both prepared according to Example 1.
The concentration of an agent listed in Table 1 is a final concentration of the agent in the plasma sample. A plasma sample without any of the test agents was tested as a control group. The results are listed in Table 1 below and also illustrated in FIG. 6.

[4] = then activator ADP (50 μl, 5 μM)
[5] = then activator Anti-moesin N-terminal domain (50 μl, 20 μg/ml)
[6] = activator ADP (5 μM), inhibitor at final concentration of Table 3, n = 6
[7] = activator Anti-moesin N-terminal domain antibody (2 μg/mL), n = 6

| Molecule | effect on platelet activation induced by ADP (in words) (platelets [1]) | effect on platelet activation induced by the antibody against the N-terminal FERM domain of moesin (in words) (platelets [1]) | CD62P FD (Mnx) (platelets [1]; [4]) | CD63 FD (Mnx) (platelets [1]; [4]) | CD62P FD (Mnx) (platelets [1]; [5]) | CD63 FD (Mnx) (platelets [1]; [5]) | PAR (%) platelet aggregation rate (platelets [2]; [6]) [%] | PAIR platelet aggregation inhibition rate (platelets [2]; [7]) | PAR (%) platelet aggregation rate (platelets [2]; [7]) [%] | inhibition of platelet aggregation induced by the antibody against the N-terminal FERM domain of moesin (in words) (platelets [2]; activator anti-moesin N-terminal domain antibody) | CD62P FD (Mnx) (platelets [3]) | CD63 FD (Mnx) (platelets [3]) | PAR (%) of PRP with the activator alone (platelets [2]; PRP positive control, no inhibitor, ADP 5 μM or antibody 2 μg/mL, n = 6) [%] | stimulation of platelet activation (in words) (platelets [3]; agent alone, CD62P and CD63 expression vs control group) | inhibition of platelet aggregation induced by ADP (in words) (platelets [2]; activator ADP) | PAIR platelet aggregation inhibition rate (platelets [2]; [6]) [%] | PAIR platelet aggregation inhibition rate (platelets [2]; activator Anti-moesin N-terminal domain antibody (2 μg/mL), n = 6, listed as N-terminal domain) [%] |
| --- | --- | --- | --- | --- | --- | --- | --- | --- | --- | --- | --- | --- | --- | --- | --- | --- | --- |
| RGDS [solid-phase synthesis, reference compound] | can substantially inhibit | no blocking effect | 7.04 | 5.61 | 17.98 | 20.13 | 11.12 | 9.77% | 55.55 | much less inhibiting effect | – | – | – | – | – | – | – |
| Nc1ncnc2c1ncn2[C@@H]1O[C@H](COP(=O)(O)OP(=O)(O)O)[C@@H](O)[C@H]1O [ADP, reference compound] | – | – | – | – | – | – | – | – | – | – | 12.88 | 11.31 | 45.62 | – | – | – | – |
| N-terminal FERM domain of moesin: N-terminal FERM domain of human moesin, amino acid residues 1-297 (SEQ ID NO:2), expressed in E. coli BL21(DE3) (protein, N-terminal FERM domain of human moesin protein) MPKTISVRVTTMDAELEFAIQPNTTGKQLFDQVVKTIGLREVWFFGLQYQDTKGFSTWLKLNKKVTAQDVRKESPLLFKFRAKFYPEDVSEELIQDITQRLFFLQVKEGILNDDIYCPPETAVLLASYAVQSKYGDFNKEVHKSGYLAGDKLLPQRVLEQHKLNKDQWEERIQVWHEEHRGMLREDAVLEYLKIAQDLEMYGVNYFSIKNKKGSELWLGVDALGLNIYEQNDRLTPKIGFPWSEIRNISFNDKKFVIKPIDKKAPDFVFYAPRLRINKRILALCMGNHELYMRRRKP | no significant effect | can significantly block | 11.38 | 7.23 | 5.79 | 6.30 | 27.55 | approximately 90% | 6.03 | – | 2.99 | 1.55 | – | does not stimulate platelet activation | much less | 39.61 | 90.21 |
